In patent US20080187554A1, “Process for producing stable HIV Th-CTL peptides” (Wyeth, priority 2005, published 2008):

Assay: Stability by RP-HPLC for peptide quantification
Assay type: physicochemical
Conditions: lyophilized, 40° C., six-months time point, all three concentrations (FIGS. 6-8)
Text: The stability was also monitored for pre-lyophilization formulations. Stability assays basically include appearance (visual inspection), pH, FLS, peptide fluorescence, and RP-HPLC for peptide quantification.

Substance: H-Lys-Gln-Ile-Ile-Asn-Met-Trp-Gln-Glu-Val-Gly-Lys-Ala-Met-Tyr-Ala-Lys-Ala-Phe-Ser-Pro-Glu-Val-Ile-Pro-Met-Phe-OH (H-KQIINMWQEVGKAMYAKAFSPEVIPMF-OH; also: acetate salt) [Peptide A, HIV Th/CTL peptide]
- potency change at accelerated temperature: potency decreases
